Source: patent US20230052680A1 (DIZAL JIANGSU PHARMACEUTICAL, published 2023)

What was measured:
[1] = biological target: T1, recombinant human FGFR3b-Fc (human, UniProt P22607-2 23-377); test: ELISA on FGFR family Fc fusion proteins
T1 construct: Bought (R&D Systems); not shown: human Fc of the bought fusion protein; not described
T1 sequence (looked up): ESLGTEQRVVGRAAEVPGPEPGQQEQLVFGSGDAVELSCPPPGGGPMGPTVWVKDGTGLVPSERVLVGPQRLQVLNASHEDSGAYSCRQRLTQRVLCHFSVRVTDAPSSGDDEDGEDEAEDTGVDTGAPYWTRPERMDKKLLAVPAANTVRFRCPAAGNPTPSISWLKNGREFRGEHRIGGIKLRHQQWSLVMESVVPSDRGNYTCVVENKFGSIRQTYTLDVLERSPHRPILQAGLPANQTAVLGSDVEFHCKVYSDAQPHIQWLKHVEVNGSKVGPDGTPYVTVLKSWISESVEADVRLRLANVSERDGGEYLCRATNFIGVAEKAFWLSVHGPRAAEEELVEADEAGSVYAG

[2] = biological target: T2, recombinant human FGFR4-Fc (human, UniProt P22455 22-369); test: ELISA on FGFR family Fc fusion proteins
T2 construct: Bought (R&D Systems); not shown: human Fc of the bought fusion protein; not described
T2 sequence (looked up): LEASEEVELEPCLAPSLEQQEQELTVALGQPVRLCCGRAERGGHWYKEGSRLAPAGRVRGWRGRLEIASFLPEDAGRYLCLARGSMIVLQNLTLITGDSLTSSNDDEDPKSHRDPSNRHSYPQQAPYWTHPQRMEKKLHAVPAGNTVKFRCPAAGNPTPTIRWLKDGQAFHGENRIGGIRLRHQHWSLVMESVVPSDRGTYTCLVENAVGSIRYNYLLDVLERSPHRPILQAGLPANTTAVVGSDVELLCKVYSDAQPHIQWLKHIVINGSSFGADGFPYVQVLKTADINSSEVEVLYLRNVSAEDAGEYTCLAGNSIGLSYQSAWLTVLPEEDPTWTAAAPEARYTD

[3] = biological target: T3, recombinant human FGFR1b-Fc (human, UniProt P11362-19 22-376, limits assumed); test: ELISA on FGFR family Fc fusion proteins
T3 construct: Bought (R&D Systems); not shown: human Fc of the bought fusion protein; not described
T3 sequence (looked up): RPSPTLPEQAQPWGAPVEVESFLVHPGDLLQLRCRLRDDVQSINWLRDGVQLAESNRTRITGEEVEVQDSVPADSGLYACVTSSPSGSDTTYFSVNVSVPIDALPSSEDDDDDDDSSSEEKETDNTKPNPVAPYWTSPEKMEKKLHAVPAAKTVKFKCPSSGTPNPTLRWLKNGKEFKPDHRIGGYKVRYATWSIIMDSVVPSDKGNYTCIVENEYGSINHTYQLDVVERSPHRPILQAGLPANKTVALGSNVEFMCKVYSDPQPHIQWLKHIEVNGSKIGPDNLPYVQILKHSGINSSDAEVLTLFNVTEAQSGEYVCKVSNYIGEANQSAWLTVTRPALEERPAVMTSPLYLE

[4] = biological target: T4, recombinant cyno FGFR2b-Fc (Cynomolgus monkey); test: ELISA, plate coated with 0.1 ug/ml cyno FGFR2b-Fc, anti-human IgG HRP detection
T4 construct: also called Cynomolgus monkey FGFR2b ECD-murine Fc; cynomolgus FGFR2b
Experimental: (§1) The cross-species binding of Ab 36c to recombinant cyno, rat/mouse, and human FGFR2b-Fc fusion proteins was conducted with ELISA. In brief, 96-well ELISA plate were coated with about 100 ul/well 0.1 μg/ml recombinant human FGFR2b-Fc, recombinant rat/mouse FGFR2b-Fc, or recombinant cyno FGFR2b-Fc protein in PBS overnight. Then the plate was blocked with 2% BSA in PBS with 0.05% Tween20 and incubation with antibody samples for 60 min at room temperature, and then washed twice in 1×TBST (Cell Signaling Technology, #9997) and followed by incubation with anti-human lgG HRP (Horseradish peroxidase) conjugate for 60 min at a room temperature. HRP activity was detected with tetra-methylbenzidine substrate (Cell Signaling Technology, #7004) and the reaction was stopped with stop solution (Cell Signaling Technology, #7002). The plate was read at 450 nm. […] Ab 36c has the highest binding affinity to rat/mouse FGFR2b, followed by human FGFR2b, and then cyno FGFR2b.

[5] = biological target: T5, recombinant rat/mouse FGFR2b-Fc (rat); test: ELISA, plate coated with 0.1 ug/ml rat/mouse FGFR2b-Fc, anti-human IgG HRP detection
T5 construct: also called rat FGFR2b fused with murine Fc
Experimental: as §1

[6] = biological target: T1, recombinant human FGFR3b-Fc; test: ELISA, plate coated with HuFGFR3b
[7] = biological target: T3, recombinant human FGFR1b-Fc; test: ELISA, plate coated with HuFGFR1b
[8] = biological target: T2, recombinant human FGFR4-Fc; test: ELISA, plate coated with HuFGFR4

B1: Ab hu36-2 (antibody, human IgG1, V domains shown)
VH: QVQLVQSGAEVKKPGSSVKVSCKASGYTFTSYNMHWVRQAPGQGLEWIGAIFPENGDTSYNQKFKGRATITADKSTSTAYMELSSLRSEDTAVYYCARGGFDYWGQGTTVTVSS
VL: DIQMTQSPSSLSASVGDRVTITCKASQDVSTNVAWYQQKPGKAPKLLIFSASYRYTGVPSRFSGSGSGTDFTFTISSLQPEDIATYYCQQHYSSPYTFGQGTKLEIK
notes: Humanized antibody with human IgG1
binding result [1]: no binding | binding result [2]: no binding | binding result [3]: no binding

B2: Ab 36c (antibody, V domains shown)
VH: QPYLQQSGAELVRPGASVKMSCKASGYTFTSYNMHWVKQTPRQGLEWIGAIFPENGDTSYNQKFKGKATLTVDKSSSTAYMQLSSLTSEDSAVYFCARGGFDYWGQGTTLTVSS
VL: DIVMTQSHKFMSTSVGDRVSITCKASQDVSTNVAWYQQKPGQSPKLLIFSASYRYTGVPDRFAGSGSGTDFTFTISSVQAEDLAVYYCQQHYSSPYTFGGGTKLDIK
notes: Chimeric: mouse VH and VL fused to human heavy and light chain constant regions; also called chimeric Ab 36; Ab c 36c
EC50 (read off the curve) [4]: ~400 pM | EC50 (read off the curve) [5]: ~200 pM

B3: Ab 36 (antibody, V domains shown)
VH: QPYLQQSGAELVRPGASVKMSCKASGYTFTSYNMHWVKQTPRQGLEWIGAIFPENGDTSYNQKFKGKATLTVDKSSSTAYMQLSSLTSEDSAVYFCARGGFDYWGQGTTLTVSS
VL: DIVMTQSHKFMSTSVGDRVSITCKASQDVSTNVAWYQQKPGQSPKLLIFSASYRYTGVPDRFAGSGSGTDFTFTISSVQAEDLAVYYCQQHYSSPYTFGGGTKLDIK
notes: Mouse monoclonal antibody from a hybridoma; also called mouse Ab 36; antibody 36
binding result [6]: no binding | binding result [7]: no binding | binding result [8]: no binding
